How the values were obtained:
Experiment in all cases: sandwich ELISA (coated antibody, conditioned medium, anti-His detection), OD450 grade
[1] = target: hMPV033 hMPV F-CompA fusion protein (human metapneumovirus (strain A))
[2] = target: hMPV026 hMPV F-CompA fusion protein (not cleaved by furin) (human metapneumovirus (strain A))
[3] = target: hMPV005 hMPV F-CompA fusion protein (human metapneumovirus (strain A))
[4] = target: hMPV027C, furin-cleaved form of hMPV027 hMPV F-CompA fusion protein (human metapneumovirus (strain A))
[5] = target: hMPV008 hMPV F-CompA fusion protein (human metapneumovirus (strain B))
[6] = target: hMPV024 hMPV F-CompA fusion protein (human metapneumovirus (strain A))
[7] = target: hMPV021 hMPV F-CompA fusion protein (human metapneumovirus (strain B))
[8] = target: hMPV027 hMPV F-CompA fusion protein (not cleaved by furin) (human metapneumovirus (strain A))

Measured: OD450

MPE8 (antibody)
1 to 2 od: [1] | [2] | [3] | [4] | [5] | [6] | [7] | [8]
